T1: CCR7 expressed on CHO-K1 cells (UniProt P32248 25-378)
T1 construct: chemokine receptor CCR7, recombinant, on CHO-K1 cells; source: CHO-K1 cells expressing CCR7 only or co-expressing CXCR4 and CCR7
T1 sequence (looked up): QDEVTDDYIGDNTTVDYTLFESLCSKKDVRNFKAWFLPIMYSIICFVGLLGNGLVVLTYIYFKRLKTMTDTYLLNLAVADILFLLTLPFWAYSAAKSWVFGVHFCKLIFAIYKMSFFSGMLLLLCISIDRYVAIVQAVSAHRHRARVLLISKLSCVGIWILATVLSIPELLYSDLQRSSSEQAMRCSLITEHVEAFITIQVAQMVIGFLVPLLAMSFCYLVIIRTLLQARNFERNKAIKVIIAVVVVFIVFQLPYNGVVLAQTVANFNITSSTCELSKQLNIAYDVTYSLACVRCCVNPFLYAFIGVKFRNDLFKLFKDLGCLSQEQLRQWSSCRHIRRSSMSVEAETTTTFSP

B1: CCL19 (ligand, UniProt Q99731 22-98, looked up)
chain: GTNDAEDCCLSVTQKPIPGYIVRNFHYLLIKDGCRVPAVVFTTLRGRQLCAPPDQPWVERIIQRLQRTSAKMKRRSS
notes: also called unlabeled CCL19
B2: CCL21 (ligand, UniProt O00585 24-134, looked up)
chain: SDGGAQDCCLKYSQRKIPAKVVRSYRKQEPSLGCSIPAILFLPRKRSQAELCADPKELWVQQLMQHLDKTPSPQKPAQGCRKDRGASKTGKKGKGSKGCKRTERSQTPKGP

Assays:
[1] = biological target: T1, CCR7 expressed on CHO-K1 cells; test: radioligand binding; competition on CHO-K1 cells co-expressing CXCR4 and CCR7; tracer 0.1 nM 125I-CCL19, increasing concentrations of unlabelled competitor; non-specific binding defined with 300 nM competitor; conditions: one partner purified
[2] = biological target: T1, CCR7 expressed on CHO-K1 cells; test: radioligand binding; competition on CHO-K1 cells expressing CCR7 only; tracer 0.1 nM 125I-CCL19, increasing concentrations of unlabelled competitor; non-specific binding defined with 300 nM competitor; conditions: one partner purified

Row | Binder | IC50 [1] [nM] | IC50 [2] [nM]
1 | B1 | 1.7 | 1.84
2 | B2 | 4.2 | 4.06
